Assay results taken from patent publication US12099068B2, “Biomarkers for graft-versus-host disease” (Incyte Corporation, priority 2018, dated 2024).

B1: CA12 (protein, UniProt O43570 25-354, looked up)
Carbonic anhydrase 12: APVNGSKWTYFGPDGENSWSKKYPSCGGLLQSPIDLHSDILQYDASLTPLEFQGYNLSANKQFLLTNNGHSVKLNLPSDMHIQGLQSRYSATQLHLHWGNPNDPHGSEHTVSGQHFAAELHIVHYNSDLYPDASTASNKSEGLAVLAVLIEMGSFNPSYDKIFSHLQHVKYKGQEAFVPGFNIEELLPERTAEYYRYRGSLTTPPCNPTVLWTVFRNPVQISQEQLLALETALYCTHMDDPSPREMINNFRQVQKFDERLVYTSFSQVQVCTAAGLSLGIILSLALAGILGICIVVVVSIWLFRRKSIKKGDNKGVIYKPATKMETEAHA
B2: DDC (protein, UniProt P20711 1-480, looked up)
Aromatic-L-amino-acid …: MNASEFRRRGKEMVDYMANYMEGIEGRQVYPDVEPGYLRPLIPAAAPQEPDTFEDIINDVEKIIMPGVTHWHSPYFFAYFPTASSYPAMLADMLCGAIGCIGFSWAASPACTELETVMMDWLGKMLELPKAFLNEKAGEGGGVIQGSASEATLVALLAARTKVIHRLQAASPELTQAAIMEKLVAYSSDQAHSSVERAGLIGGVKLKAIPSDGNFAMRASALQEALERDKAAGLIPFFMVATLGTTTCCSFDNLLEVGPICNKEDIWLHVDAAYAGSAFICPEFRHLLNGVEFADSFNFNPHKWLLVNFDCSAMWVKKRTDLTGAFRLDPTYLKHSHQDSGLITDYRHWQIPLGRRFRSLKMWFVFRMYGVKGLQAYIRKHVQLSHEFESLVRQDPRFEICVEVILGLVCFRLKGSNKVNEALLQRINSAKKIHLVPCHLRDKFVLRFAICSRTVESAHVQRAWEHIKELAADVLRAERE
B3: DDX58 (protein, UniProt O95786 1-925, looked up)
Antiviral innate immune …: MTTEQRRSLQAFQDYIRKTLDPTYILSYMAPWFREEEVQYIQAEKNNKGPMEAATLFLKFLLELQEEGWFRGFLDALDHAGYSGLYEAIESWDFKKIEKLEEYRLLLKRLQPEFKTRIIPTDIISDLSECLINQECEEILQICSTKGMMAGAEKLVECLLRSDKENWPKTLKLALEKERNKFSELWIVEKGIKDVETEDLEDKMETSDIQIFYQEDPECQNLSENSCPPSEVSDTNLYSPFKPRNYQLELALPAMKGKNTIICAPTGCGKTFVSLLICEHHLKKFPQGQKGKVVFFANQIPVYEQQKSVFSKYFERHGYRVTGISGATAENVPVEQIVENNDIIILTPQILVNNLKKGTIPSLSIFTLMIFDECHNTSKQHPYNMIMFNYLDQKLGGSSGPLPQVIGLTASVGVGDAKNTDEALDYICKLCASLDASVIATVKHNLEELEQVVYKPQKFFRKVESRISDKFKYIIAQLMRDTESLAKRICKDLENLSQIQNREFGTQKYEQWIVTVQKACMVFQMPDKDEESRICKALFLYTSHLRKYNDALIISEHARMKDALDYLKDFFSNVRAAGFDEIEQDLTQRFEEKLQELESVSRDPSNENPKLEDLCFILQEEYHLNPETITILFVKTRALVDALKNWIEGNPKLSFLKPGILTGRGKTNQNTGMTLPAQKCILDAFKASGDHNILIATSVADEGIDIAQCNLVILYEYVGNVIKMIQTRGRGRARGSKCFLLTSNAGVIEKEQINMYKEKMMNDSILRLQTWDEAVFREKILHIQTHEKFIRDSQEKPKPVPDKENKKLLCRKCKALACYTADVRVIEECHYTVLGDAFKECFVSRPHPKPKQFSSFEKRAKIFCARQNCSHDWGIHVKYKTFEIPVIKIESFVVEDIATGVQTLYSKWKDFHFEKIPFDPAEMSK
B4: TRAF2 (protein, UniProt Q12933 2-501, looked up)
TNF receptor-associated …: AAASVTPPGSLELLQPGFSKTLLGTKLEAKYLCSACRNVLRRPFQAQCGHRYCSFCLASILSSGPQNCAACVHEGIYEEGISILESSSAFPDNAARREVESLPAVCPSDGCTWKGTLKEYESCHEGRCPLMLTECPACKGLVRLGEKERHLEHECPERSLSCRHCRAPCCGADVKAHHEVCPKFPLTCDGCGKKKIPREKFQDHVKTCGKCRVPCRFHAIGCLETVEGEKQQEHEVQWLREHLAMLLSSVLEAKPLLGDQSHAGSELLQRCESLEKKTATFENIVCVLNREVERVAMTAEACSRQHRLDQDKIEALSSKVQQLERSIGLKDLAMADLEQKVLEMEASTYDGVFIWKISDFARKRQEAVAGRIPAIFSPAFYTSRYGYKMCLRIYLNGDGTGRGTHLSLFFVVMKGPNDALLRWPFNQKVTLMLLDQNNREHVIDAFRPDVTSSSFQRPVNDMNIASGCPLFCPVSKMEAKNSYVRDDAIFIKAIVDLTGL
B5: EDIL3 (protein, UniProt O43854 24-480, looked up)
EGF-like repeat and discoidin …: DICDPNPCENGGICLPGLADGSFSCECPDGFTDPNCSSVVEVASDEEEPTSAGPCTPNPCHNGGTCEISEAYRGDTFIGYVCKCPRGFNGIHCQHNINECEVEPCKNGGICTDLVANYSCECPGEFMGRNCQYKCSGPLGIEGGIISNQQITASSTHRALFGLQKWYPYYARLNKKGLINAWTAAENDRWPWIQINLQRKMRVTGVITQGAKRIGSPEYIKSYKIAYSNDGKTWAMYKVKGTNEDMVFRGNIDNNTPYANSFTPPIKAQYVRLYPQVCRRHCTLRMELLGCELSGCSEPLGMKSGHIQDYQITASSIFRTLNMDMFTWEPRKARLDKQGKVNAWTSGHNDQSQWLQVDLLVPTKVTGIITQGAKDFGHVQFVGSYKLAYSNDGEHWTVYQDEKQRKDKVFQGNFDNDTHRKNVIDPPIYARHIRILPWSWYGRITLRSELLGCTEEE
B6: SMAD1 (protein, UniProt Q15797 1-465, looked up)
Mothers against …: MNVTSLFSFTSPAVKRLLGWKQGDEEEKWAEKAVDALVKKLKKKKGAMEELEKALSCPGQPSNCVTIPRSLDGRLQVSHRKGLPHVIYCRVWRWPDLQSHHELKPLECCEFPFGSKQKEVCINPYHYKRVESPVLPPVLVPRHSEYNPQHSLLAQFRNLGQNEPHMPLNATFPDSFQQPNSHPFPHSPNSSYPNSPGSSSSTYPHSPTSSDPGSPFQMPADTPPPAYLPPEDPMTQDGSQPMDTNMMAPPLPSEINRGDVQAVAYEEPKHWCSIVYYELNNRVGEAFHASSTSVLVDGFTDPSNNKNRFCLGLLSNVNRNSTIENTRRHIGKGVHLYYVGGEVYAECLSDSSIFVQSRNCNYHHGFHPTTVCKIPSGCSLKIFNNQEFAQLLAQSVNHGFETVYELTKMCTIRMSFVKGWGAEYHRQDVTSTPCWIEIHLHGPLQWLDKVLTQMGSPHNPISSVS
B7: PIK3AP1 (protein, UniProt Q6ZUJ8 1-805, looked up)
Phosphoinositide 3-kinase …: MAASGVPRGCDILIVYSPDAEEWCQYLQTLFLSSRQVRSQKILTHRLGPEASFSAEDLSLFLSTRCVVVLLSAELVQHFHKPALLPLLQRAFHPPHRVVRLLCGVRDSEEFLDFFPDWAHWQELTCDDEPETYVAAVKKAISEDSGCDSVTDTEPEDEKVVSYSKQQNLPTVTSPGNLMVVQPDRIRCGAETTVYVIVRCKLDDRVATEAEFSPEDSPSVRMEAKVENEYTISVKAPNLSSGNVSLKIYSGDLVVCETVISYYTDMEEIGNLLSNAANPVEFMCQAFKIVPYNTETLDKLLTESLKNNIPASGLHLFGINQLEEEDMMTNQRDEELPTLLHFAAKYGLKNLTALLLTCPGALQAYSVANKHGHYPNTIAEKHGFRDLRQFIDEYVETVDMLKSHIKEELMHGEEADAVYESMAHLSTDLLMKCSLNPGCDEDLYESMAAFVPAATEDLYVEMLQASTSNPIPGDGFSRATKDSMIRKFLEGNSMGMTNLERDQCHLGQEEDVYHTVDDDEAFSVDLASRPPVPVPRPETTAPGAHQLPDNEPYIFKVFAEKSQERPGNFYVSSESIRKGPPVRPWRDRPQSSIYDPFAGMKTPGQRQLITLQEQVKLGIVNVDEAVLHFKEWQLNQKKRSESFRFQQENLKRLRDSITRRQREKQKSGKQTDLEITVPIRHSQHLPAKVEFGVYESGPRKSVIPPRTELRRGDWKTDSTSSTASSTSNRSSTRSLLSVSSGMEGDNEDNEVPEVTRSRSPGPPQVDGTPTMSLERPPRVPPRAASQRPPTRETFHPPPPVPPRGR
B8: LAIR-2 (protein, UniProt Q6ISS4 22-152, looked up)
Leukocyte-associated …: QEGALPRPSISAEPGTVISPGSHVTFMCRGPVGVQTFRLEREDRAKYKDSYNVFRLGPSESEARFHIDSVSEGNAGLYRCLYYKPPGWSEHSDFLELLVKESSGGPDSPDTEPGSSAGTVPGTEASGFDAP
B9: XPNPEP2 (protein, UniProt O43895 22-649, looked up)
Xaa-Pro aminopeptidase 2: HTKPVDLGGQDVRNCSTNPPYLPVTVVNTTMSLTALRQQMQTQNLSAYIIPGTDAHMNEYIGQHDERRAWITGFTGSAGTAVVTMKKAAVWTDSRYWTQAERQMDCNWELHKEVGTTPIVTWLLTEIPAGGRVGFDPFLLSIDTWESYDLALQGSNRQLVSITTNLVDLVWGSERPPVPNQPIYALQEAFTGSTWQEKVSGVRSQMQKHQKVPTAVLLSALEETAWLFNLRASDIPYNPFFYSYTLLTDSSIRLFANKSRFSSETLSYLNSSCTGPMCVQIEDYSQVRDSIQAYSLGDVRIWIGTSYTMYGIYEMIPKEKLVTDTYSPVMMTKAVKNSKEQALLKASHVRDAVAVIRYLVWLEKNVPKGTVDEFSGAEIVDKFRGEEQFSSGPSFETISASGLNAALAHYSPTKELNRKLSSDEMYLLDSGGQYWDGTTDITRTVHWGTPSAFQKEAYTRVLIGNIDLSRLIFPAATSGRMVEAFARRALWDAGLNYGHGTGHGIGNFLCVHEWPVGFQSNNIAMAKGMFTSIEPGYYKDGEFGIRLEDVALVVEAKTKYPGSYLTFEVVSFVPYDRNLIDVSLLSPEHLQYLNRYYQTIREKVGPELQRRQLLEEFEWLQQHTEPLA

Tested on: plasma proteins
Experiment: Plasma proteins modulated between baseline and day 28 in responders (CR, VGPR, PR; n = 19), Example 6 (Table 13)
Format: in vivo, human
Settings: plasma protein (OLINK NPX); responders (CR, VGPR, PR; n = 19); itacitinib 200 mg or 300 mg QD with corticosteroids; day 28 vs baseline
Outline: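 Longitudinal comparison, day 28 versus baseline, with steroid-naive (N=10) and steroid-refractory (N=18) patients combined. Proteins measured by OLINK proximity extension, log2 normalized protein expression. Differences tested by t tests, ANOVA, Pearson correlation, P<0.05 significant.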

Molecule	Fold Change, Increased Expression from Baseline to Day 28	Fold Change, Decreased Expression from Baseline to Day 28
B1	1.247	–
B2	1.5485	–
B3	–	−1.6381
B4	–	−1.4472
B5	1.12	–
B6	–	−1.3807
B7	–	−1.7193
B8	–	−1.8117
B9	1.285	–
